Experimental data from patent publication US20240336656A1.
Starred links: 1 amine or outer side, 2 acyl side, 3 side chain; linkers in the order of their positions; H or OH if unused. Positions of bridges follow the written chain, without caps; N, C: chain ends. Non-standard residues stand in square brackets, D forms with d. Groups on a side chain read outwards from the residue. Chains are numbered I, II in the order given. No end group written: not given here. *: point of attachment. TATA = O=C(CC[*:1])N1CN(C(=O)CC[*:2])CN(C(=O)CC[*:3])C1; PEG12 = NCCOCCOCCOCCOCCOCCOCCOCCOCCOCCOCCOCCOCCC(=O)O; Biotin = O=C1N[C@H]2[C@H](CS[C@H]2CCCCC(=O)*)N1; 1Nal = N[C@@H](Cc1cccc2ccccc12)C(=O)O; Hyp = O=C(O)[C@@H]1C[C@@H](O)CN1; hArg = N=C(N)NCCCC[C@H](N)C(=O)O; tBuAla = CC(C)(C)C[C@H](N)C(=O)O; Nle = CCCC[C@H](N)C(=O)O; Pent4ynoyl = C#CCCC(=O)*

B1: BCY13583 (peptide)
peptide 1: {N‑(acid-PEG3)‑N‑bis(PEG3-azide) linker}-CP[1Nal][dD]CM[hArg]DWSTP[Hyp]WC
peptide 2: Ac-C[tBuAla]PE[dK](Pent4ynoyl)PYCFADPY[Nle]CA
peptide 3: Ac-C[tBuAla]PE[dK](Pent4ynoyl)PYCFADPY[Nle]CK(Alexa Fluor 488)
modifications: linker I:1-I:5-I:15, II:1-II:8-II:15, III:1-III:8-III:15 via TATA; not fully specified (bridges); also: chains 2 and 3 triazole-clicked via D-Lys(PYA) to the N-(acid-PEG3)-N-bis(PEG3-azide) linker, chain 1 joined to the linker at its N-terminus
B2: BCY13582 (peptide)
peptide 1: {N‑(acid-PEG3)‑N‑bis(PEG3-azide) linker}-CP[1Nal][dD]CM[hArg]DWSTP[Hyp]WC
peptide 2: Ac-C[tBuAla]PE[dK](Pent4ynoyl)PYCFADPY[Nle]CA
peptide 3: Ac-C[tBuAla]PE[dK](Pent4ynoyl)PYCFADPY[Nle]CK([PEG12-Biotin])
modifications: linker I:1-I:5-I:15, II:1-II:8-II:15, III:1-III:8-III:15 via TATA; not fully specified (bridges); also: chains 2 and 3 triazole-clicked via D-Lys(PYA) to the N-(acid-PEG3)-N-bis(PEG3-azide) linker, chain 1 joined to the linker at its N-terminus

Key:
[1] = molecular target: CD137 (TNFRSF9) on cells (human), Q07011; experiment: cell-based or functional assay
Chain of CD137 (TNFRSF9) on cells (human), Q07011 (Q07011 24-255): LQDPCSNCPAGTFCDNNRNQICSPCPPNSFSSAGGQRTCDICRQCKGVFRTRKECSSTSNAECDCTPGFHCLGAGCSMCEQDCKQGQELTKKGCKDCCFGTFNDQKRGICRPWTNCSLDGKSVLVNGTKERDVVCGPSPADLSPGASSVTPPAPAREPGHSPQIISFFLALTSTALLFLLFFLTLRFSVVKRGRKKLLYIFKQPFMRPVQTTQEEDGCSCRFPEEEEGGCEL

[2] = molecular target: T1, cyno CD137 extracellular domain (cyno), A9YYE7; experiment: SPR direct binding, BCY13582 captured with reversible biotin capture kit, soluble CD137 ECD; n = 1
T1 chain: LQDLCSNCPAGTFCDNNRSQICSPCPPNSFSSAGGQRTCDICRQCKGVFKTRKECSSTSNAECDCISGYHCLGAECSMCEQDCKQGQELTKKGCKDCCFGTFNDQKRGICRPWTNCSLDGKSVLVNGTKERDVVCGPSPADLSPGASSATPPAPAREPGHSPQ

[3] = molecular target: human CD137 extracellular domain (human), Q07011; experiment: SPR direct binding, BCY13582 captured with reversible biotin capture kit, soluble CD137 ECD; n = 3
Chain of human CD137 extracellular domain (human), Q07011 (Q07011 24-186): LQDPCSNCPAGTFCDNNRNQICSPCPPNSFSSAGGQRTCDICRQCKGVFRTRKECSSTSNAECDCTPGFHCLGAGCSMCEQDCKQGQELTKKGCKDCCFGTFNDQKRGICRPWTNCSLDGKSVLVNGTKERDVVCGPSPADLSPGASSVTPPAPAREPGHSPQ

Row | Binder | EC50 (nM) of fold induction over background, CD137 reporter assay, coculture with HT1376 (human) [1] [nM] | EC50 (nM) of fold induction over background, CD137 reporter assay, coculture with MDA-MB-468 (human) [1] [nM] | Kd [2] [nM] | Kd [3] [nM]
1 | B1 | 1.7 | 0.84 |  | 
2 | B2 | 0.58 | 0.34 | 4.23 | 8.4
